# Measured values as given in the supplement of paper PMC11780869.
# Test system: Bacillus subtilis
# Assay: cleaved RNA product abundance (RNA/gDNA barcode ratio) relative to median wild-type variant (ratio to wild type); higher = more accumulation of the downstream cleavage product
# In short: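 In LB at 37°C, B. subtilis cultures went from OD600 0.0003 to 0.3. Their chromosomes held barcoded reporter mRNAs, truncated aprE or tetM, with RNase Y cleavage-site windows mutagenized via oligos at a 9% error rate. Cleaved RNA, chosen by gel, was reverse transcribed and barcode-sequenced alongside genomic DNA barcodes with UMI collapsing, giving a per-construct RNA:gDNA ratio scaled to the median construct with the unmutated site. This scaled ratio is termed cleaved product abundance.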
# [1] = experiment (reporter, strain, medium): exp 2b: truncated aprE reporter, strain BJT200, cleavage site: cggR-gapA (positions -7 to +36 mutated)
# [2] = experiment (reporter, strain, medium): exp 8a: truncated aprE reporter, strain BJT201 with 2% xylose (RNase J1 expressed), cleavage site: glnRA (positions -5 to +31 mutated)
# [3] = experiment (reporter, strain, medium): exp 4a: truncated aprE reporter, strain BJT201 with 2% xylose (RNase J1 expressed), cleavage site: cggR-gapA (positions -7 to +36 mutated)
Sequence,cleaved RNA product abundance [1],cleaved RNA product abundance [3],further results
ACAGACGAAGGAGCCGCAAAGAAGTTATTAACGGATGAATAATCCCTCAATATAAATCTCTCTCACTTATTTAAA,0.108,–,–
CGACATGTCCCGCTTCTTTCATTAATCCGTTAGCAACTGTTTTGATATAAACATTTACCTTTTAAGAGGAGGAAT,–,–,cleaved RNA product abundance [2]: 0.399
ACAGACGAAGGAGCCGCAAAGAAGTTATTAAGGGATGAATAATCACTCAATATAAATAGCTCTCACTTATTTAAA,–,0.101,–
ACAGACGAAGGAGCCGCAAAGAAGTTATTAATGGATGAATAATCCCTCAATATAGATATCTCTCACTTATTTAAA,–,0.215,–
ACAGACGAAGGAGCCGCAAAGAAGTTTTTAAGAGATGAATAATCCCTCAATATAAATATCTCTCACTTATTTAAA,–,0.183,–
ACAGACGAAGGAGCCGCAAAGAAGTTATTAAGGGATGAATAATCCCTTAAAATAAATATCTCTCACTTATTTAAA,–,0.862,–
ACAGACGAAGGAGCCGCATAGAAGTTAATAAGGGATGAATAATCCCTCAATATAAATATCTCTCACTTATTTAAA,0.239,0.304,–
ACAGACGAAGGAGCCGCAAAGATGTTATTAAGGGATGAATAAACCCTCAATATAAATATCTCTCACTTATTTAAA,–,0.275,–
ACAGACGAAGGAGCCGCAAAGAAGGAATTAAGGGATGAATAATCCCTCAATATAAATATCTCTCACTTATTTAAA,–,0.353,–
ACAGACGAAGGAGCCGCAAAGAAGTTATTAAGGTATGAATAATCCCTCAATATATATATCTCTCACTTATTTAAA,0.121,0.0867,–
ACAGACGAAGGAGCCGCAAAGAAGTTATTAATGGATGGATAATCCCTCAATATAAATATCTCTCACTTATTTAAA,–,0.143,–
ACAGACGAAGGAGCCGCAAAGAAGTTATTAAGGGATGAGTAATCCCTCATTATAAATATCTCTCACTTATTTAAA,–,0.185,–
CGACATGTCCCGCTTCTTTCATTAATCAGTGAGCAACTGTTTTGCTATATACATTTACCTTTTAAGAGGAGGAAT,–,–,cleaved RNA product abundance [2]: 0.37
ACAGACGAAGGAGCCGCAAAGACGCTATTAAGGGATGAATAATCCCTCAATATAAATATCTCTCACTTATTTAAA,0.548,–,–
CGACATGTCCCGCTTCTTTCATTAATCCGTTAGCAACTGTTCTGCTATATACATGTACCTTTTAAGAGGAGGAAT,–,–,cleaved RNA product abundance [2]: 0.386
ACAGACGAAGGAGCCGCAAAGAAGTTATTAAGGGATGAATAATCGCTCAAAATAAATATCTCTCACTTATTTAAA,–,0.116,–
ACAGACGAAGGAGCCGCCAATAAGTTATTAAGGGATGAATAATCCCTCAATATAAATATCTCTCACTTATTTAAA,–,0.812,–
ACAGACGAAGGAGCCGCAAAGAAGTTATTTAGGGATGAATAATCCCTTAATATAAATATCTCTCACTTATTTAAA,–,1.39,–
CGACATGTCCCGCTTCTTTCATTATTCCGTTAGCAACTCTTTTGCTAAATACATTTACCTTTTAAGAGGAGGAAT,–,–,cleaved RNA product abundance [2]: 0.422
ACAGACGAAGGAGCCGCAAAGTAGTTATTAAGGGATGAATAATCCCTCAATATAAATATCTCTCACTTATTTAAA,0.953,0.98,"cleaved RNA product abundance (experiment (reporter, strain, medium): exp 6: tetM reporter, strain 168, cleavage site: cggR-gapA (positions -7 to +36 mutated)): 1.09"
ACAGACGAAGGAGCCGCAAAGAAGTTATTAAGGGAAGAATAATCTCTCAATATAAATATCTCTCACTTATTTAAA,0.124,0.201,–
ACAGACGAAGGAGCCGCAAAGACGTTATTAAGGGATTAATAATCCCTCAATATAAATATCTCTCACTTATTTAAA,0.747,0.857,–
ACAGACGAAGGAGCCGCAAAGAAGTTATTAACCGATGAATAATCCCTCAATATAAATATCTCTCACTTATTTAAA,0.0926,0.0751,–
ACAGACGAAGGAGCCGCAAATAAGTTATTAAGGGATGAATAATCACTCAATATAAATATCTCTCACTTATTTAAA,0.118,0.107,–
ACAGACGAAGGAGCCGCAAAGAAGTTATTAACGGATGAATATTCCCTCAATATAAATATCTCTCACTTATTTAAA,–,0.138,–
CGACATGTCCCGCTTCTTTCATTAATCGGTTAGCAACTGTTTTGATATATACATTTACCTTTTAAGAGGAGGAAT,–,–,cleaved RNA product abundance [2]: 0.356
CGACATGTCCCGCTTCTTTCATTAATCCGTTAGCAACTGTTTTGCTATATAAAATTACCTTTTAAGAGGAGGAAT,–,–,cleaved RNA product abundance [2]: 0.606

Sequence,cleaved RNA product abundance [1],cleaved RNA product abundance [3],further results
CGACATGTCCCGCTTCTTTCATTAATTCGTTAGCAACTGTTTTGCTATATACATTTGCCTTTTAAGAGGAGGAAT,–,–,cleaved RNA product abundance [2]: 0.536
ACAGACGAAGGAGCCGCAAAGAAGTTATTAAAGGAGGAATAATCCCTCAATATAAATATCTCTCACTTATTTAAA,–,0.25,–
ACAGACGAAGGAGCCGCAAAGAAGTTATTAAGAGATGAATAATCCCTCAATATAAATAGCTCTCACTTATTTAAA,–,0.106,–
ACAGACGAAGGAGCCGCAAAGAAGTTATTAAGGGATTAATAATCCCTCATTATAAATATCTCTCACTTATTTAAA,0.247,0.534,–
ACAGACGAAGGAGCCGCAAAGAAGTTAATAATGGATGAATAATCCCTCAATATAAATATCTCTCACTTATTTAAA,0.104,0.137,–
CGACATGTCCCGCTTCTTTCATTAATCCGTTAGCAACGGTTTTGCTATATACATTTACCTTTTAAGAGGAGGAAT,–,–,cleaved RNA product abundance [2]: 0.387
CGACATGTCCCGCTTCTTTCATTAATCCGTTAGCAACTGTTTTGCTATATTGATTTACCTTTTAAGAGGAGGAAT,–,–,cleaved RNA product abundance [2]: 0.263
ACAGACGAAGGAGCCGCAAAGAAGTTATTAAGGGATGAATATTCCCTCCATATAAATATCTCTCACTTATTTAAA,–,0.193,–
ACAGACGAAGGAGCCGCAAAAAAGTTATTAATGGATGAATAATCCCTCAATATAAATATCTCTCACTTATTTAAA,0.0715,0.149,–
ACAGACGAAGGAGCCGCAAAGAAGTTATTAAGTGATGAATAATCACTCAATATAAATATCTCTCACTTATTTAAA,0.81,1.13,–
ACAGACGAAGGAGCCGCAAAGAAGTTATTAAGGGATGAATATTCCCTCAATAAAAATATCTCTCACTTATTTAAA,–,0.156,–
CGACATGTCCCGCTTCTTTCATTAATCCGTTAGCAACTGTGTTGCTATATACATTTACCTTTTAAGAGGAGGAAT,–,–,cleaved RNA product abundance [2]: 0.358
ACAGACGAAGGAGCCGCAAAGAAGTTATTAAGGTATGAATAATCCCTCCATATAAATATCTCTCACTTATTTAAA,–,0.0967,–
CGACATGTCCCGCTTCTTTCATTAATCCGTTAGCAACTATTTTGCTATATACATGTACCTTTTAAGAGGAGGAAT,–,–,cleaved RNA product abundance [2]: 1.19
ACAGACGAAGGAGCCGCAAAGAAGTTATTAAGGGATGAACAATCCCTCGATATAAATATCTCTCACTTATTTAAA,–,0.554,–
ACAGACGAAGGAGCCGCAAAGAAGTTATTAAGTGATGAATAATTCCTCAATATAAATATCTCTCACTTATTTAAA,0.0685,0.14,–
CGACATGTCCCGCTTCTTTCATTAATCCGTTAGCAACTGTATTGGTATATACATTTACCTTTTAAGAGGAGGAAT,–,–,cleaved RNA product abundance [2]: 0.175
CGACATGTCCCGCTTCTTTCATTAATCCGTTAGCAACTGTTTTGCTATATACATATACATTTTAAGAGGAGGAAT,–,–,cleaved RNA product abundance [2]: 0.68
CGACATGTCCCGCTTCTTTCATTATTCCGTTAGCAACTGTTTTGCTATATACCTTTACCTTTTAAGAGGAGGAAT,–,–,cleaved RNA product abundance [2]: 0.383
CGACATGTCCCGCTTCTTTCATTACTCCGTTAGCAACTGTTTTGCTAAATACATTTACCTTTTAAGAGGAGGAAT,–,–,cleaved RNA product abundance [2]: 1.11
ACAGACGAAGGAGCCGCAAAGAAGTTATTAAGGTATGAATAAACCCTCAATATAAATATCTCTCACTTATTTAAA,0.0972,0.124,–
ACAGACGAAGGAGCCGCAAAGAAGTTATCAAGGGATGAATATTCCCTCAATATAAATATCTCTCACTTATTTAAA,–,0.27,–
ACAGACGAAGGAGCCGCAAAGAAATTATTAAGGGATGAATAATCCCTCAATATAGATATCTCTCACTTATTTAAA,–,0.474,–
CGACATGTCCCGCTTCTTTCATTAATCCATTAGCAACTGTTTTGCTATATACATTTTACTTTTAAGAGGAGGAAT,–,–,cleaved RNA product abundance [2]: 1.24
ACAGACGAAGGAGCCGCAAAGAAGTAATTAAGGGCTGAATAATCCCTCAATATAAATATCTCTCACTTATTTAAA,0.161,0.165,–
ACAGACGAAGGAGCCGCTAACAAGTTATTAAAGGATGAATAATCCCTCAATATAAATATCTCTCACTTATTTAAA,0.111,–,–
ACAGACGAAGGAGCCGCAAAGAAGTTATTAGAGGATGAATAATCCCTCAATATAAATATCTCTCACTTATTTAAA,–,0.301,–
